Laboratory results from publication PMC10853800.

T1: EYA4 1-365 (UniProt O95677 1-365)
T1 sequence: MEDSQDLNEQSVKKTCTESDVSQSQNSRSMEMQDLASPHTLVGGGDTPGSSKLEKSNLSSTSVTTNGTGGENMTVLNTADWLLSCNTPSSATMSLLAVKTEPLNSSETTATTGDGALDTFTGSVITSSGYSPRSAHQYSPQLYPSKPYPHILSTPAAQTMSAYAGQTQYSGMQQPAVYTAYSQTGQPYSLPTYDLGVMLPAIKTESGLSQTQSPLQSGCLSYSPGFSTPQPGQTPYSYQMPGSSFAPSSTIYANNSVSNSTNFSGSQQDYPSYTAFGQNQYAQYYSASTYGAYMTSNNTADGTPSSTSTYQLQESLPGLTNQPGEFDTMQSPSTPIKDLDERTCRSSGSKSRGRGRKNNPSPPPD

T2: EYA4 358-639 (UniProt O95677 358-639)
T2 sequence: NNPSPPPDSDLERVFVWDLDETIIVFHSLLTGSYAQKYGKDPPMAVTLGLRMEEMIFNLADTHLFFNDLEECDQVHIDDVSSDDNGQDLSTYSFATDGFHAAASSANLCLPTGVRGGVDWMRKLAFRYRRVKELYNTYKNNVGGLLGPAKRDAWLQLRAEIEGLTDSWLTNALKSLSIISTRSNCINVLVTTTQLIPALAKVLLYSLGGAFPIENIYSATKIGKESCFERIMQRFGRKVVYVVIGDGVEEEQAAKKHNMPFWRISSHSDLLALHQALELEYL

B1: 83(dT) (ssDNA)
DNA: TTTTTTTTTTTTTTTTTTTTTTTTTTTTTTTTTTTTTTTTTTTTTTTTTTTTTTTTTTTTTTTTTTTTTTTTTTTTTTTTTTT
B2: Cy5-P1 ssDNA (ssDNA)
DNA: TTATATCCTTTACTTTGAATTCTATGTTTAACCTTTTACTTATTTTGTATTAGCCGGATCCTTATTTCAATTATGTTCAT
B3: Cy5-P1/P2 dsDNA (dsDNA)
DNA 1: B2 DNA
DNA 2: ATGAACATAATTGAAATAAGGATCCGGCTAATACAAAATAAGTAAAAGGTTAAACATAGAATTCAAAGTAAAGGATATAA

Tests used:
RAD51 T309A = RAD51 T309A (UniProt Q06609 1-339, T309A); test: negative-stain EM
RAD51 WT = RAD51 WT (UniProt Q06609 1-339); test: negative-stain EM
RAD51 Y54F/Y315F [1] = biological target: T3, RAD51 Y54F/Y315F (UniProt Q06609 1-339, Y54F;Y315F); test: negative-stain EM
EYA4 1-365 = biological target: T1, EYA4 1-365; test: MST
EYA4 358-639 = biological target: T2, EYA4 358-639; test: EMSA
RAD51 Y54F/Y315F [2] = biological target: T3, RAD51 Y54F/Y315F; test: MST
RAD51 Y54F/Y315F [3] = biological target: T3, RAD51 Y54F/Y315F; test: MST; remark: listed apart in the source

T3 sequence (Q06609 whole entry Y54F/Y315F): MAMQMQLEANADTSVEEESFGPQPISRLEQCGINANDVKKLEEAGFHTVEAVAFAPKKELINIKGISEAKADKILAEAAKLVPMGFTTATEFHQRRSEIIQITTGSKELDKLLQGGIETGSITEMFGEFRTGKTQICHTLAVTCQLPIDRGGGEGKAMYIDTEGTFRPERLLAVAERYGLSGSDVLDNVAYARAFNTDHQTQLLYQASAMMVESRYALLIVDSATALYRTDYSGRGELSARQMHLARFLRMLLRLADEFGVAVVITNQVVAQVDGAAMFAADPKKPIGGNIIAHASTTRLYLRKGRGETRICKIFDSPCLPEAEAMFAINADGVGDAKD
Sequence of RAD51 WT (Q06609 whole entry): as the sequence (Q06609 whole entry Y54F/Y315F) above, with F54Y, F315Y counted along it
Sequence of RAD51 T309A (Q06609 whole entry T309A): as the sequence (Q06609 whole entry Y54F/Y315F) above, with F54Y, T309A, F315Y counted along it

Binder | binding result (RAD51 T309A) | binding result (RAD51 WT) | binding result (RAD51 Y54F/Y315F [1]) | Kd (EYA4 1-365) | binding result (EYA4 358-639) | binding result (RAD51 Y54F/Y315F [2]) | binding result (RAD51 Y54F/Y315F [3])
B1 | binds | binds | binds | – | – | – | –
B2 | – | – | – | 303 nM | no binding | binds | –
B3 | – | – | – | 732 nM | no binding | – | binds
